Assay results: publication PMC7261175, “A splice site-sensing conformational switch in U2AF2 is modulated by U2AF1 and its recurrent myelodysplasia-associated mutation” (Nucleic Acids Research, 2019)

Experiments:
[1] = biological target: T1, His6SumoMBP-U2AF1 S34F;U2AF2 Cy3/Cy5 (human;human, UniProt Q01081;P26368-2 1-188;85-342, S34F;C67S|A181C;C305A;Q324C); assay: smFRET; RNA tethered; 25% closed; Anisotropy: 150 mM NaCl, 25 mM HEPES pH 6.8, 0.5 mM TCEP, 3% glycerol, 20 uM ZnCl2, 0.2 U/ul SUPERase-In; smFRET: 25 mM HEPES pH 7.0, 150 mM KCl, 0.01% octaethylene glycol monododecyl ether, 0.2 mM TCEP, 6 mM BME, 1.5 mM Trolox, oxygen scavenger, room temperature, excess U2AF1 (1000 nM) with heterodimer; details: protein: recombinant;recombinant; tags: N-terminal His6-SUMO-MBP with AAA linker; C-terminal extra Ala;GST cleaved; Cy3/Cy5 on C181 and C324; copies: 1;1; label: biotin on annealed DNA
T1 sequence (Q01081 1-188 S34F/C67S, chain 1 of 2): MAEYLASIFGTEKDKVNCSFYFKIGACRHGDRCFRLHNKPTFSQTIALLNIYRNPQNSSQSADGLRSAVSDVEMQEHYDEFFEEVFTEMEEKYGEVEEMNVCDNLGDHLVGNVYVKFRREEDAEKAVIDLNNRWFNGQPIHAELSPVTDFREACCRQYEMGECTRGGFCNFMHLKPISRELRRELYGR
T1 sequence (P26368 85-342 A181C/C305A/Q324C, chain 2 of 2): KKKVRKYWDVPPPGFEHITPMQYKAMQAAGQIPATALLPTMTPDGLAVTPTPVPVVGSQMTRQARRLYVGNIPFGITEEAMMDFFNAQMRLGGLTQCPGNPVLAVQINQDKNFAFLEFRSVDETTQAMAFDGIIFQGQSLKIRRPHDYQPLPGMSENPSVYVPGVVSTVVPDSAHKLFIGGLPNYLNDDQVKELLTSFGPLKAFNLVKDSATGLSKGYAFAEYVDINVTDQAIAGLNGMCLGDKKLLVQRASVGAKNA

[2] = biological target: T2, His6SumoMBP-U2AF1;U2AF2 Cy3/Cy5 (human;human, UniProt Q01081;P26368-2 1-188;85-342, C67S|A181C;C305A;Q324C); assay: smFRET; RNA tethered; open 0.4 FRET; Anisotropy: 150 mM NaCl, 25 mM HEPES pH 6.8, 0.5 mM TCEP, 3% glycerol, 20 uM ZnCl2, 0.2 U/ul SUPERase-In; smFRET: 25 mM HEPES pH 7.0, 150 mM KCl, 0.01% octaethylene glycol monododecyl ether, 0.2 mM TCEP, 6 mM BME, 1.5 mM Trolox, oxygen scavenger, room temperature, excess U2AF1 (1000 nM) with heterodimer; details: protein: recombinant;recombinant; tags: N-terminal His6-SUMO-MBP with AAA linker; C-terminal extra Ala;GST cleaved; Cy3/Cy5 on C181 and C324; copies: 1;1; label: biotin on annealed DNA
T2 sequence (Q01081 1-188 C67S, chain 1 of 2): as the sequence (Q01081 1-188 S34F/C67S, chain 1 of 2) above, with F34S counted along it
T2 sequence (P26368 85-342 A181C/C305A/Q324C, chain 2 of 2): as the sequence (P26368 85-342 A181C/C305A/Q324C, chain 2 of 2) above

[3] = biological target: His6SumoMBP-U2AF1;U2AF2 Cy3/Cy5 D215R/G319R (human;human, UniProt Q01081;P26368-2 1-188;85-342, C67S|A181C;D215R;C305A;G319R;Q324C); assay: smFRET; RNA tethered; about half closed; Anisotropy: 150 mM NaCl, 25 mM HEPES pH 6.8, 0.5 mM TCEP, 3% glycerol, 20 uM ZnCl2, 0.2 U/ul SUPERase-In; smFRET: 25 mM HEPES pH 7.0, 150 mM KCl, 0.01% octaethylene glycol monododecyl ether, 0.2 mM TCEP, 6 mM BME, 1.5 mM Trolox, oxygen scavenger, room temperature, excess U2AF1 (1000 nM) with heterodimer; details: protein: recombinant;recombinant; tags: N-terminal His6-SUMO-MBP with AAA linker; C-terminal extra Ala;GST cleaved; Cy3/Cy5 on C181 and C324; copies: 1;1; label: biotin on annealed DNA
Sequence of His6SumoMBP-U2AF1;U2AF2 Cy3/Cy5 D215R/G319R (Q01081 1-188 C67S, chain 1 of 2): as the sequence (Q01081 1-188 S34F/C67S, chain 1 of 2) above, with F34S counted along it
Sequence of His6SumoMBP-U2AF1;U2AF2 Cy3/Cy5 D215R/G319R (P26368 85-342 A181C/D215R/C305A/G319R/Q324C, chain 2 of 2): as the sequence (P26368 85-342 A181C/C305A/Q324C, chain 2 of 2) above, with D131R, G235R counted along it

U2AF1 untagged;U2AF2 = U2AF1 untagged;U2AF2 (human;human, UniProt Q01081;P26368-2 1-193;85-471, |); assay: fluorescence anisotropy; Kd in figure only; tag has no significant influence; Anisotropy: 150 mM NaCl, 25 mM HEPES pH 6.8, 0.5 mM TCEP, 3% glycerol, 20 uM ZnCl2, 0.2 U/ul SUPERase-In; smFRET: 25 mM HEPES pH 7.0, 150 mM KCl, 0.01% octaethylene glycol monododecyl ether, 0.2 mM TCEP, 6 mM BME, 1.5 mM Trolox, oxygen scavenger, room temperature, excess U2AF1 (1000 nM) with heterodimer; details: protein: recombinant;recombinant; tags: MBP cleaved by TEV; GSGGGGS linker remains;GST cleaved by PreScission; copies: 1;1; label: 5'-fluorescein
Sequence of U2AF1 untagged;U2AF2 (Q01081 1-193, chain 1 of 2): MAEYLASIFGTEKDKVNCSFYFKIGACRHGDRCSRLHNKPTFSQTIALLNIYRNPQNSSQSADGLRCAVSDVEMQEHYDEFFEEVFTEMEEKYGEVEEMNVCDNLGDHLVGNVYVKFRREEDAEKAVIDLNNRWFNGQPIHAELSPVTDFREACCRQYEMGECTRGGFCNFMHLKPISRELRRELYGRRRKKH
Sequence of U2AF1 untagged;U2AF2 (P26368 other isoform, or with tags, fused parts or gaps |, chain 2 of 2): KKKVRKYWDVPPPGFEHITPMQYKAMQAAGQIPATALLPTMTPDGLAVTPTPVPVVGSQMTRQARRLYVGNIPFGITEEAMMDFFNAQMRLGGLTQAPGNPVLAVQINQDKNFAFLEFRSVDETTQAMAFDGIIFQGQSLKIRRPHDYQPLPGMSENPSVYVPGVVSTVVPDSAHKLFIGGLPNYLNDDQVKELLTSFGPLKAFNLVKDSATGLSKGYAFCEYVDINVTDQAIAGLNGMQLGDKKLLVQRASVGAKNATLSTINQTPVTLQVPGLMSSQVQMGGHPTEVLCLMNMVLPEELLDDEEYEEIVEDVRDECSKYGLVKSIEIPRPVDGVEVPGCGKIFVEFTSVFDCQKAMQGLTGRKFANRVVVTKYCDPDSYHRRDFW

His6SumoMBP-U2AF1;U2AF2 = His6SumoMBP-U2AF1;U2AF2 (human;human, UniProt Q01081;P26368-2 1-188;85-471, C67S|); assay: fluorescence anisotropy; Anisotropy: 150 mM NaCl, 25 mM HEPES pH 6.8, 0.5 mM TCEP, 3% glycerol, 20 uM ZnCl2, 0.2 U/ul SUPERase-In; smFRET: 25 mM HEPES pH 7.0, 150 mM KCl, 0.01% octaethylene glycol monododecyl ether, 0.2 mM TCEP, 6 mM BME, 1.5 mM Trolox, oxygen scavenger, room temperature, excess U2AF1 (1000 nM) with heterodimer; details: protein: recombinant;recombinant; tags: N-terminal His6-SUMO-MBP with AAA linker; C-terminal extra Ala;GST cleaved by PreScission; copies: 1;1; label: 5'-fluorescein
Sequence of His6SumoMBP-U2AF1;U2AF2 (Q01081 1-188 C67S, chain 1 of 2): as the sequence (Q01081 1-188 S34F/C67S, chain 1 of 2) above, with F34S counted along it
Sequence of His6SumoMBP-U2AF1;U2AF2 (P26368 other isoform, or with tags, fused parts or gaps C67S|, chain 2 of 2): as the sequence (P26368 other isoform, or with tags, fused parts or gaps |, chain 2 of 2) above

U2AF1 UHM (dZn);U2AF2 = U2AF1 UHM (dZn);U2AF2 (human;human, UniProt Q01081;P26368-2 43-146;85-471, C67S|); assay: fluorescence anisotropy; Kd shown in figure only; Anisotropy: 150 mM NaCl, 25 mM HEPES pH 6.8, 0.5 mM TCEP, 3% glycerol, 20 uM ZnCl2, 0.2 U/ul SUPERase-In; smFRET: 25 mM HEPES pH 7.0, 150 mM KCl, 0.01% octaethylene glycol monododecyl ether, 0.2 mM TCEP, 6 mM BME, 1.5 mM Trolox, oxygen scavenger, room temperature, excess U2AF1 (1000 nM) with heterodimer; details: protein: recombinant;recombinant; tags: GST cleaved by TEV;GST cleaved by PreScission; copies: 1;1; label: 5'-fluorescein
Sequence of U2AF1 UHM (dZn);U2AF2 (Q01081 43-146 C67S, chain 1 of 2): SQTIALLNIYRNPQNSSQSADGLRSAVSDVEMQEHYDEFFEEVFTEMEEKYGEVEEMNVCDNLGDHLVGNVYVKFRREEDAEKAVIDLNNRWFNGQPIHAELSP
Sequence of U2AF1 UHM (dZn);U2AF2 (P26368 other isoform, or with tags, fused parts or gaps C67S|, chain 2 of 2): as the sequence (P26368 other isoform, or with tags, fused parts or gaps |, chain 2 of 2) above

[4] = biological target: U2AF2 Cy3/Cy5 isolated subunit (human, UniProt P26368-2 113-342, A181C;C305A;Q324C); assay: smFRET; RNA tethered; preferentially open; Anisotropy: 150 mM NaCl, 25 mM HEPES pH 6.8, 0.5 mM TCEP, 3% glycerol, 20 uM ZnCl2, 0.2 U/ul SUPERase-In; smFRET: 25 mM HEPES pH 7.0, 150 mM KCl, 0.01% octaethylene glycol monododecyl ether, 0.2 mM TCEP, 6 mM BME, 1.5 mM Trolox, oxygen scavenger, room temperature, excess U2AF1 (1000 nM) with heterodimer; details: protein: recombinant, tags: His6 and T7 tags, label: biotin on annealed DNA
Sequence of U2AF2 Cy3/Cy5 isolated subunit (P26368 113-342 A181C/C305A/Q324C): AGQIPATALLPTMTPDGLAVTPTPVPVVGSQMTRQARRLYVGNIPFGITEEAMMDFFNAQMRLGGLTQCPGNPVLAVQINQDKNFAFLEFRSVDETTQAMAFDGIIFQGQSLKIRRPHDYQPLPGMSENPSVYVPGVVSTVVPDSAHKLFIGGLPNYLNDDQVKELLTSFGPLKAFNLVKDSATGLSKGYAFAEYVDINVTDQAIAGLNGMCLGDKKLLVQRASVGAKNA

[5] = biological target: T2, His6SumoMBP-U2AF1;U2AF2 Cy3/Cy5; assay: smFRET; RNA tethered; more open than DEK(-3U); Anisotropy: 150 mM NaCl, 25 mM HEPES pH 6.8, 0.5 mM TCEP, 3% glycerol, 20 uM ZnCl2, 0.2 U/ul SUPERase-In; smFRET: 25 mM HEPES pH 7.0, 150 mM KCl, 0.01% octaethylene glycol monododecyl ether, 0.2 mM TCEP, 6 mM BME, 1.5 mM Trolox, oxygen scavenger, room temperature, excess U2AF1 (1000 nM) with heterodimer; details: protein: recombinant;recombinant; tags: N-terminal His6-SUMO-MBP with AAA linker; C-terminal extra Ala;GST cleaved; Cy3/Cy5 on C181 and C324; copies: 1;1; label: biotin on annealed DNA
[6] = biological target: T1, His6SumoMBP-U2AF1 S34F;U2AF2 Cy3/Cy5; assay: smFRET; RNA tethered; slightly more open than DEK(-3U); Anisotropy: 150 mM NaCl, 25 mM HEPES pH 6.8, 0.5 mM TCEP, 3% glycerol, 20 uM ZnCl2, 0.2 U/ul SUPERase-In; smFRET: 25 mM HEPES pH 7.0, 150 mM KCl, 0.01% octaethylene glycol monododecyl ether, 0.2 mM TCEP, 6 mM BME, 1.5 mM Trolox, oxygen scavenger, room temperature, excess U2AF1 (1000 nM) with heterodimer; details: protein: recombinant;recombinant; tags: N-terminal His6-SUMO-MBP with AAA linker; C-terminal extra Ala;GST cleaved; Cy3/Cy5 on C181 and C324; copies: 1;1; label: biotin on annealed DNA

UCCCUUUUUUUUCCACAGCUCGCGGU (ssRNA, 3' PEG18-DNA conjugate) [AdML tethered]
binding result [1]: binds
binding result [2]: binds
binding result [3]: binds

CUGUCCCUUUUUUUUCACAGCUCGCGGUUGAG (ssRNA) [Fl-AdML]
binding result (U2AF1 untagged;U2AF2): binds
Kd (His6SumoMBP-U2AF1;U2AF2): 0.12 ± 0.015 µM
fold weaker binding affinity (Kd ratio) (U2AF1 UHM (dZn);U2AF2): 35 fold weaker than heterodimer with zinc knuckles

UACUAAAUUAAUUUCCAGAAAAGAGU (ssRNA, 3' PEG18-DNA conjugate) [DEK(-3C)]
binding result [4]: binds
binding result [5]: binds
binding result [6]: binds
